First-order rate constant of the decline of stationary bacteria and initial attachments per minute in the field of view, data for one substance are collected here from patent publication US20090325259A1, “USE OF ADHESION MOLECULES AS BOND STRESS-ENHANCED NANOSCALE BINDING SWITCHES” (priority 2002, published 2009).

The target of assay [1] is Monomannosylated BSA (monomannose conjugated to bovine serum albumin) (bovine) (UniProt P02769).
The target is the same in assay [2]. In words: parallel plate flow chamber; new bacteria appearing on 1Man-BSA surface.

Chain of Monomannosylated BSA (monomannose conjugated to bovine serum albumin) (bovine) (P02769 25-607 limits assumed): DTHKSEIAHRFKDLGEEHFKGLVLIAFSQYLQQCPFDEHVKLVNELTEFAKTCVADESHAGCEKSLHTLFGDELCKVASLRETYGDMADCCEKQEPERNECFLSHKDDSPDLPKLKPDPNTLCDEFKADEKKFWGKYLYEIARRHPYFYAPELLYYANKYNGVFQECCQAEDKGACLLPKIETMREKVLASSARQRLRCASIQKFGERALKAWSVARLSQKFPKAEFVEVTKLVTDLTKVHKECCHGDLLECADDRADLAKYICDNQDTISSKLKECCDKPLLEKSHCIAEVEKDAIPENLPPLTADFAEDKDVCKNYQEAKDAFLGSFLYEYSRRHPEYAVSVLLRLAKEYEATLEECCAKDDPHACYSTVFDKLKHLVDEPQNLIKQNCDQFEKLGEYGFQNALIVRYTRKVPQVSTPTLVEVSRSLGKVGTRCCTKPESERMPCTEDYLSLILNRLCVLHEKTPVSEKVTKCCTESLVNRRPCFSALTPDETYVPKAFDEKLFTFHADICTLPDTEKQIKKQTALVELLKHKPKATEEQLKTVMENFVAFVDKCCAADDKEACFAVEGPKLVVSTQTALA

Turning to “FimH-f18 (FimH adhesin variant of intestinal E. coli strain F18), in type I fimbriae on recombinant E. coli (from UniProt P08191 22-300)”, in assay [1], the first-order rate constant of the decline of stationary bacteria worked out at 3 s⁻¹. Further, in assay [2], the initial attachments per minute in the field of view, at 0.5 dynes/cm^2 (attachments per minute) was 102; the initial attachments per minute in the field of view, at 3.6 dynes/cm^2 (attachments per minute) came out at 64; the initial attachments per minute in the field of view, at 7 dynes/cm^2 (attachments per minute) was found to be 32.
